The text below walks through data of patent US20130129753A1 (Pfizer, published 2013).

T1: IL-13Rα2 receptor (human, UniProt Q14627 27-380)
T1 construct: whole, on cells; also called IL-13Rα2 antigen; IL13Ra2
T1 sequence (looked up): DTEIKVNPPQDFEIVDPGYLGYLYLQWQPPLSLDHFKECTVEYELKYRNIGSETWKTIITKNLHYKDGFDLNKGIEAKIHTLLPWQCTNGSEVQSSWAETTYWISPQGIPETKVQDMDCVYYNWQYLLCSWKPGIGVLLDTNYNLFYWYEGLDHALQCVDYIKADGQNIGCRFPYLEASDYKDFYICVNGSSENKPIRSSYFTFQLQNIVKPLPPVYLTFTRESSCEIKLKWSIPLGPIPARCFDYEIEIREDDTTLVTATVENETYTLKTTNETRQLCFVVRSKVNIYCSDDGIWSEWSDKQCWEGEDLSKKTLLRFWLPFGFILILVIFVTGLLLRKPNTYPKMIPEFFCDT

B1: humanized antibody hu08 (antibody, V domains shown)
VH: EVQLVESGGGLVQPGGSLRLSCAASGFTFSRNGMSWVRQAPGKGLEWVATVSSGGSYIYYADSVKGRFTISRDNAKNSLYLQMNSLRAEDTAVYYCARQGTTALATRFFDVWGQGTLVTVSS
VL: DIQMTQSPSSLSASVGDRVTITCKASQDVGTAVAWYQQKPGKAPKLLIYSASYRSTGVPSRFSGSGSGTDFTLTISSLQPEDFATYYCQHHYSAPWTFGGGTKVEIKT
notes: Unconjugated antibody; also called hu08v1.0/1.0; IL13Ra2-AB08-v1010-hG1
B2: IL13Ra2-AB08-v1010-hG1-(C)_mcValCitPABC-#54 (antibody, V domains shown)
VH: B1 VH
VL: B1 VL
modifications: drug-linker mcValCitPABC-#54 on cysteine (C), positions not given; drug-linker mcValCitPABC-#54 on cysteine (C), positions not given; DAR 3.2 per antibody
B3: IL13Ra2-AB08-v1010-hG1-(C)_Mal(H2O)Peg6C2-0#118 (antibody, V domains shown)
VH: B1 VH
VL: B1 VL
modifications: drug-linker Mal(H2O)Peg6C2-0#118 on cysteine (C), positions not given; drug-linker Mal(H2O)Peg6C2-0#118 on cysteine (C), positions not given; DAR 2.9 per antibody
B4: IL13Ra2-AB08-v1010-hG1-(C)_mc-0#118 (antibody, V domains shown)
VH: B1 VH
VL: B1 VL
modifications: drug-linker mc-0#118 on cysteine (C), positions not given; drug-linker mc-0#118 on cysteine (C), positions not given; DAR 3.2 per antibody
B5: IL13Ra2-AB08-v1010-hG1-(C)_MalPeg6C2-#117 (antibody, V domains shown)
VH: B1 VH
VL: B1 VL
modifications: drug-linker MalPeg6C2-#117 on cysteine (C), positions not given; drug-linker MalPeg6C2-#117 on cysteine (C), positions not given; DAR 3.3 per antibody
B6: IL13Ra2-AB08-v1010-hG1-(C)_mcValCitPABC-#112 (antibody, V domains shown)
VH: B1 VH
VL: B1 VL
modifications: drug-linker mcValCitPABC-#112 on cysteine (C), positions not given; drug-linker mcValCitPABC-#112 on cysteine (C), positions not given; DAR 4 per antibody
B7: IL13Ra2-AB08-v1010-hG1-(C)_mc-#115 (antibody, V domains shown)
VH: B1 VH
VL: B1 VL
modifications: drug-linker mc-#115 on cysteine (C), positions not given; drug-linker mc-#115 on cysteine (C), positions not given; DAR 4.3 per antibody
B8: IL13Ra2-AB08-v1010-hG1-(C)_mc-#117 (antibody, V domains shown)
VH: B1 VH
VL: B1 VL
modifications: drug-linker mc-#117 on cysteine (C), positions not given; drug-linker mc-#117 on cysteine (C), positions not given; DAR 3.3 per antibody
B9: IL13Ra2-AB08-v1010-hG1-(C)_mcValCitPABC-#226 (antibody, V domains shown)
VH: B1 VH
VL: B1 VL
modifications: drug-linker mcValCitPABC-#226 on cysteine (C), positions not given; drug-linker mcValCitPABC-#226 on cysteine (C), positions not given; DAR 3 per antibody
B10: Notch-28-v1010-hG1-(C)_mcValCitPABC-#54 (antibody, human IgG1, kappa, V domains shown)
VH: EVQLVESGGGLVQPGGSLRLSCAASGFTFRDYGMTWVRQAPGKGLEWVAYISSGSNYIYYAEAVKGRFTISRDNAKNSLYLQMNSLRAEDTAVYYCARRGPFVLDAWGQGTLVTVSS
VL: DIQMTQSPSSLSASVGDRVTITCKASQSINRYLHWYQQKPGKAPKLLIYNANGLQTGVPSRFSGSGSGTDFTLTISSLQPEDFATYYCLQHNTWPDTFGGGTKVEIKR
modifications: drug-linker mcValCitPABC-#54 on cysteine (C), positions not given; drug-linker mcValCitPABC-#54 on cysteine (C), positions not given; DAR 3.9 per antibody
B11: Notch-28-v1010-hG1-(C)_mcValCitPABC-#112 (antibody, human IgG1, kappa, V domains shown)
VH: B10 VH
VL: B10 VL
modifications: drug-linker mcValCitPABC-#112 on cysteine (C), positions not given; drug-linker mcValCitPABC-#112 on cysteine (C), positions not given; DAR 3.9 per antibody
B12: Notch-75-v1913-hG1-(C)_mcValCitPABC-#54 (antibody, human IgG1, kappa, V domains shown)
VH: EVQLVESGGGLVQPGGSLRLSCAASGYAFTDYWMTWVRQAPGKGLEWVAEISPNSGGTNFNEKFKGRFTISVDNAKNSLYLQMNSLRAEDTAVYYCARGEIRYNWFAYWGQGTLVTVSS
VL: DIQMTQSPSSLSASVGDRVTITCKASQNVGNNIAWYQQKPGKAPKLLIYYASNRYTGVPSRFSGSGYGTDFTLTISSLQPEDFATYYCQRLYNSPFTFGGGTKVEIKR
modifications: drug-linker mcValCitPABC-#54 on cysteine (C), positions not given; drug-linker mcValCitPABC-#54 on cysteine (C), positions not given; DAR 3.8 per antibody
B13: Notch-75-v1913-hG1-(C)_mcValCitPABC-#112 (antibody, human IgG1, kappa, V domains shown)
VH: B12 VH
VL: B12 VL
modifications: drug-linker mcValCitPABC-#112 on cysteine (C), positions not given; drug-linker mcValCitPABC-#112 on cysteine (C), positions not given; DAR 4.2 per antibody

For one test, the target named is T1, IL-13Rα2 receptor. Description: statement in the example section; no binding assay described.
Take B1: the binding result is “binds”.

The target in a further test is T1, IL-13Rα2 receptor. Description: cell-based or functional assay.
Regarding B2, the “IC50 (ng Ab/mL), viability of A375 cells” value was determined as 3.8 ng Ab/mL and the “IC50 (ng Ab/mL), viability of PC3MM2 cells” value (“IC50 … of PC3MM2 cells” for short) was 2.5 ng Ab/mL.
As for B3, the “IC50 (ng Ab/mL), viability of A375 cells” value is 4.9 ng Ab/mL and the “IC50 … of PC3MM2 cells” value stood at 2.9 ng Ab/mL.
B4: the “IC50 (ng Ab/mL), viability of A375 cells” value was found to be 2.1 ng Ab/mL and the “IC50 … of PC3MM2 cells” value was determined as 1.3 ng Ab/mL.
Take B5: the “IC50 (ng Ab/mL), viability of A375 cells” value was found to be 3.4 ng Ab/mL and the “IC50 … of PC3MM2 cells” value worked out at 3.5 ng Ab/mL.
For B6, the “IC50 (ng Ab/mL), viability of A375 cells” value stood at 2.2 ng Ab/mL and the “IC50 … of PC3MM2 cells” value was 1.2 ng Ab/mL.
Regarding B7, the “IC50 (ng Ab/mL), viability of A375 cells” value was 2.2 ng Ab/mL and the “IC50 … of PC3MM2 cells” value came out at 1.2 ng Ab/mL.
In the same order, the values of B8 are 2.4 ng Ab/mL and 1.1 ng Ab/mL.
B9: the “IC50 (ng Ab/mL), viability of A375 cells” value is 2.9 ng Ab/mL and the “IC50 … of PC3MM2 cells” value was found to be 1.5 ng Ab/mL.

The next test concerns the target Notch receptor (human). The test is described as follows: cell-based or functional assay.
B10: the “IC50 (ng Ab/mL), MTS viability of HCC2429 cells (repeat 1)” value (shortened to “IC50 … of HCC2429 cells (repeat 1)”) was determined as 473 ng Ab/mL; the “IC50 (ng Ab/mL), MTS viability of HCC2429 cells (repeat 2)” value (shortened to “IC50 … of HCC2429 cells (repeat 2)”) amounted to 2940 ng Ab/mL; the “IC50 (ng Ab/mL), MTS viability of MDA-MB-468/hNotch cells (repeat 1)” value (shortened to “IC50 … of MDA-MB-468/hNotch cells (repeat 1)”) came out at 3.2 ng Ab/mL; the “IC50 (ng Ab/mL), MTS viability of MDA-MB-468/hNotch cells (repeat 2)” value (“IC50 … of MDA-MB-468/hNotch cells (repeat 2)” for short) stood at 3 ng Ab/mL. For the same molecule, the “IC50 (ng Ab/mL), MTS viability of MDA-MB-468 cells” value stood at 6540 ng Ab/mL; the “IC50 (ng Ab/mL), MTS viability of OVCAR3 cells” value (“IC50 … of OVCAR3 cells” below) was 306 ng Ab/mL; the “IC50 (ng Ab/mL), MTS viability of U2OS/hNotch cells” value turned out to be 1330 ng Ab/mL.
With B11, the “IC50 … of HCC2429 cells (repeat 1)” value is 148 ng Ab/mL; the “IC50 … of HCC2429 cells (repeat 2)” value came to 2050 ng Ab/mL; the “IC50 … of MDA-MB-468/hNotch cells (repeat 1)” value was 1.3 ng Ab/mL; the “IC50 … of MDA-MB-468/hNotch cells (repeat 2)” value came out at 3 ng Ab/mL. Moreover, the “IC50 … of OVCAR3 cells” value is 17 ng Ab/mL.
Take B12: the “IC50 … of HCC2429 cells (repeat 1)” value amounted to 611 ng Ab/mL; the “IC50 … of HCC2429 cells (repeat 2)” value came out at 3300 ng Ab/mL; the “IC50 … of MDA-MB-468/hNotch cells (repeat 1)” value stood at 37 ng Ab/mL; the “IC50 … of MDA-MB-468/hNotch cells (repeat 2)” value is 36 ng Ab/mL. Besides, the “IC50 (ng Ab/mL), MTS viability of MDA-MB-468 cells” value is 7000 ng Ab/mL; the “IC50 … of OVCAR3 cells” value came out at 515 ng Ab/mL; the “IC50 (ng Ab/mL), MTS viability of U2OS/hNotch cells” value stood at 523 ng Ab/mL.
For the molecule B13, the “IC50 … of HCC2429 cells (repeat 1)” value stood at 214 ng Ab/mL; the “IC50 … of HCC2429 cells (repeat 2)” value was 630 ng Ab/mL; the “IC50 … of MDA-MB-468/hNotch cells (repeat 1)” value came to 26 ng Ab/mL; the “IC50 … of MDA-MB-468/hNotch cells (repeat 2)” value was 25 ng Ab/mL. Also, the “IC50 … of OVCAR3 cells” value worked out at 254 ng Ab/mL.
